For the series, the target named is T1, SmMYB113 (Solanum melongena, UniProt A0A0A0QP33 1-256).
T1 sequence: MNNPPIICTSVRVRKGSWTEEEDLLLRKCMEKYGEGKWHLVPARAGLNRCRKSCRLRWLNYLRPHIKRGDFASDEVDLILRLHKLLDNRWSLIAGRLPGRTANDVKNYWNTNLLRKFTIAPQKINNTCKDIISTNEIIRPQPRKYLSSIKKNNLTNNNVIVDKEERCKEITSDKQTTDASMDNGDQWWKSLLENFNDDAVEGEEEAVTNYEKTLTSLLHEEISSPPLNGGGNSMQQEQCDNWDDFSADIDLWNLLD
Nature of the series: EMSA; EMSA per manufacturer's instructions (Thermo Pierce); buffer, salt, pH and temperature not stated; unlabeled competitor 10x, 30x, 100x. The conditions noted are these: protein: recombinant; tags: His (pET32a fusion); label: biotin; blunt.

The text below walks through data of paper PMC10599318, “RNA-sequencing analysis reveals novel genes involved in the different peel color formation in eggplant”.

B1: SmASAT3 probe (dsDNA)
DNA 1: TTGGTTTTTATGGGCACAGTTGCTACTATGGGTGAATA
DNA 2: TATTCACCCATAGTAGCAACTGTGCCCATAAAAACCAA
In the case of B1, the binding result is on record as “binds”.

B2: SmCytb5 probe (dsDNA)
DNA 1: TCCAAGTTTTTTTCTTTGGTTGATAATTTTATCTAACG
DNA 2: CGTTAGATAAAATTATCAACCAAAGAAAAAAACTTGGA
On to B2, for which the binding result is “binds”.

B3: SmGST probe (dsDNA)
DNA 1: CAGACTTTCCACTCAACCACTGGTTGCTGCTCATCTTCA
DNA 2: TGAAGATGAGCAGCAACCAGTGGTTGAGTGGAAAGTCTG
With B3, the binding result is “binds”.

B4: SmMATE probe (dsDNA)
DNA 1: AACAATTGCTATAACTACAGTTAGGGAATGCAATTACCG
DNA 2: CGGTAATTGCATTCCCTAACTGTAGTTATAGCAATTGTT
Turning to B4, the binding result is “binds”.

B5: SmF3'5'M probe (dsDNA)
DNA 1: TTTTTTTTTTGCTTAGACAACTGGCAAGGATTTTACTAA
DNA 2: TTAGTAAAATCCTTGCCAGTTGTCTAAGCAAAAAAAAAA
As for B5, the binding result is “binds”.
